Patent US10017580B2, “Humanized anti-Tn-MUC1 antibodies and their conjugates” (ADC THERAPEUTICS S.A., priority 2014, dated 2018)

How the values were obtained:
Tn-MUC1 (16TR-MUC1-Tn) = test: Tn-MUC1 binding ELISA (protocol 4); set-up: species or system human; details: for Tn-MUC1 binding EC50: ELISA on 16TR-MUC1-Tn coated plate
[1] = system: ZR-75-1 cell line, which expresses Tn-MUC1; test: ZR-75-1 cell binding assay by flow cytometry (protocol 6); details: for ZR-75-1 cell binding EC50: flow cytometry, live cells
Protocol: Protocol 6: ZR-75-1 Cell Binding Assay by Flow Cytometry Materials • Wash solution: PBS 0.1% (w/v) sodium azide • Binding buffer: PBS, 10% normal goat serum, 0.1% (w/v) sodium azide) • 96 well U-well microplate Protocol
Exponentially growing cells are suspended by incubation with cell dissociation buffer enzyme-free, Hanks-based (Gibco 13150-016) following the manufacturer's instructions. A cell count/viability is done on a dilution of 10 ul cells+Trypan Blue, 10 ul, with a haemocytomer. The suspension is centrifuged and the cell pellet re-suspended in binding buffer at 3×10^6 per ml. If significant levels of aggregates are present in the cell count, the suspension is filtered to remove aggregates. The cell suspension is dispensed (50 ul/well) in 96 well U-bottom plates and cooled on ice for 10 minutes. Primary antibody (50 ul/well) diluted in binding buffer (typically 1 ug per ml or less) is added to each well and incubated at 4° C. for 1 hour. The microplate is centrifuged 5 min at 300-400 g at 4° C., flicked to remove the supernatant and then the cell pellet re-suspended in 200 uL of wash buffer (PBS, 0.1% sodium azide). Centrifugation and re-suspension are done 4 times in all. After the last centrifugation, cells are re-suspended in 50 uL of binding buffer containing the biotin labelled conjugate 1:250 (kept at −20 C: Biotin-SP-AffiniPure F(ab′)2 Fragment Goat antihuman IgG (H+L); Jackson 109-066-088). Cells are incubated for 1 hour at 4 C, then washed 4 times as before. Cells are resuspended in 50 ul of binding buffer containing Streptavidin, Alexa Fluor® 488 conjugate (Life Technologies s11223) diluted 1:250 and Fixable Viability Dye eFluor® 780 (eBioscience 65-0865) diluted 1:2000, The cells are incubated at 4° C. for 1 hour and then washed 3 times, as above. Cells are then re-suspended in PBS if reading immediately or fixed in 100 ul of paraformaldehyde (2% (w/v) in PBS) and analysed with by flow cytometer (Accuri C6), gating on live cells which have a lower Fixable Viability Dye MFI compared to dead cells.
IgG binding potency to Tn-MUC1 was measured as per protocol 4 and binding to the ZR-75-1 cell line, which expresses Tn-MUC1, was measured as per protocol 6.

[2] = Thermal denaturation assay (protocol 5); type: physicochemical; details: 50% inactivation temperature, 10 minutes heating, read by antigen-binding ELISA

Sequence of Tn-MUC1 (16TR-MUC1-Tn) (P15941 141-460 limits assumed): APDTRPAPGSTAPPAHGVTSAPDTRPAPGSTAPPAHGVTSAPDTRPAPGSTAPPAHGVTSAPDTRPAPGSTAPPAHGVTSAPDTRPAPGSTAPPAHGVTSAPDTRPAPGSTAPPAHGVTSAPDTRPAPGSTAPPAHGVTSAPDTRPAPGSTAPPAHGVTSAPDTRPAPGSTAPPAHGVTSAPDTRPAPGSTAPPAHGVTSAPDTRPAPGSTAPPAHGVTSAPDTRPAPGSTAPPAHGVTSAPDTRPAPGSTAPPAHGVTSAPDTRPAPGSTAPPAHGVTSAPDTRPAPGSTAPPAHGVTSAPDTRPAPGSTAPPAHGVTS

Row | Tn-MUC1 binding EC50 (Tn-MUC1 (16TR-MUC1-Tn)) [µg/mL] | ZR-75-1 cell binding EC50 [1] [µg/mL] | Molecule | TnMUC1 binding potency compared with mouse 5E5 (in words) (Tn-MUC1 (16TR-MUC1-Tn); Tn-MUC1 binding assay data) | ZR-75-1 binding potency compared with mouse 5E5 (in words) ([1]; flow cytometry EC50 data) | Tm [2] [°C]
1 | 0.0198 | 0.0413 | Ab6: anti-Tn MUC 1 antibody comprising a VH domain according to SEQ ID NO. 28 and a VL domain according to SEQ ID NO. 33 (antibody, V domains shown, Synthetic sequence: Humanized antibody heavy chain variable region 5E5RHC9; Synthetic sequence: Humanized antibody light chain variable region 5E5RKB) VH: EVQLVESGAEVKKPGASVEVSCQASGYTFTDHAIHWVRQAPGQGLEWMGHFSPGNTDIKYNDKFKGRVTMTVDRSINTAYMELRRLRSDDTAVYYCKTSTFFFDYWGQGTMVTVSS VL: DIVMTQSPLSLPVTPGEPASISCKSSQSLLNSGDQKNYLTWYLQKPGQSPQLLIYWASTRESGVPDRFSGSGSGTDFTLKISRVEAEDVGVYYCQNDYSYPLTFGGGTKVEIK | substantially improved over the mouse 5E5 |  | 
2 | 0.02687 | 0.01842 | Ab5: anti-Tn MUC 1 antibody comprising a VH domain according to SEQ ID NO. 19 and a VL domain according to SEQ ID NO. 33 (antibody, V domains shown, Synthetic sequence: Humanized antibody heavy chain variable region 5E5RHB10; Synthetic sequence: Humanized antibody light chain variable region 5E5RKB) VH: EVQLVQSGAEVKKPGESLKISCKISGYIFTDHAIHWVRQMPGKGLEWMGHFSPGNTDIKYNDKFKGQVTLSVDRSINTAYLQWSSLKASDTAIYFCKTSTFFFDYWGQGTRVTVSS VL: DIVMTQSPLSLPVTPGEPASISCKSSQSLLNSGDQKNYLTWYLQKPGQSPQLLIYWASTRESGVPDRFSGSGSGTDFTLKISRVEAEDVGVYYCQNDYSYPLTFGGGTKVEIK |  | substantially improved over the mouse 5E5 | 62.58
3 | 0.07549 | 0.04229 | Ab4: anti-Tn MUC 1 antibody comprising a VH domain according to SEQ ID NO. 9 and a VL domain according to SEQ ID NO. 33 (antibody, V domains shown, Synthetic sequence: Humanized antibody heavy chain variable region 5E5RHA8; Synthetic sequence: Humanized antibody light chain variable region 5E5RKB) VH: QVQLVQSGAEVKKTGSSVKVSCKASGYTFTDHAIHWVRQAPGQALEWMGHFSPGNTDIKYNDKFKGRVTLTVDRSMSTAYMELSSLRSEDTAMYYCKTSTFFFDYWGQGTMVTVSS VL: DIVMTQSPLSLPVTPGEPASISCKSSQSLLNSGDQKNYLTWYLQKPGQSPQLLIYWASTRESGVPDRFSGSGSGTDFTLKISRVEAEDVGVYYCQNDYSYPLTFGGGTKVEIK |  |  | 65.23
